In paper PMC11470957, “Principles of paralog-specific targeted protein degradation engaging the C-degron E3 KLHDC2” (Nature Communications, 2024):

Biological target: KLHDC2 substrate binding domain (KLHDC2^SBD, 15-361) (UniProt Q9Y2U9)
Sequence (Q9Y2U9 15-361): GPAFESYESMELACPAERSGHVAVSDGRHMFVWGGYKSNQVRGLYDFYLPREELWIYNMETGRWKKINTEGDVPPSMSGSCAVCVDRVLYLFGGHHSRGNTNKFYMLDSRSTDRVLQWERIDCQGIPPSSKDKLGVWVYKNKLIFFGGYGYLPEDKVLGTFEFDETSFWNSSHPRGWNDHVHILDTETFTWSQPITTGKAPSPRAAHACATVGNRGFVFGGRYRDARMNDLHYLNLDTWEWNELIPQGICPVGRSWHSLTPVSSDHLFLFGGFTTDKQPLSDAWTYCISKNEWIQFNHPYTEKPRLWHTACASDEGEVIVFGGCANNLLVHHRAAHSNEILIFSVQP

improvement of the IC50 of inhibition of KLHDC2 di-Gly substrate ubiquitylation, SJ46421-BRD3^BD2 against SJ46421 alone (orders-of-magnitude): 2
Substance: BRD3^BD2 (second bromodomain of BRD3, residues 306-416) (from UniProt Q15059 306-416) (domain or fragment)
